Assay results published in patent US20240390497A1 (Stanford University, published 2024).

Biological target: T1, human CD93/Fc fusion protein (human, UniProt Q9NPY3 22-580, limits assumed)
T1 construct: It was biotinylated or DyLight 650-conjugated for staining; also called CD93-Fc chimera protein; CD93-Fc biotinylated protein; not shown: Fc part
T1 sequence (looked up): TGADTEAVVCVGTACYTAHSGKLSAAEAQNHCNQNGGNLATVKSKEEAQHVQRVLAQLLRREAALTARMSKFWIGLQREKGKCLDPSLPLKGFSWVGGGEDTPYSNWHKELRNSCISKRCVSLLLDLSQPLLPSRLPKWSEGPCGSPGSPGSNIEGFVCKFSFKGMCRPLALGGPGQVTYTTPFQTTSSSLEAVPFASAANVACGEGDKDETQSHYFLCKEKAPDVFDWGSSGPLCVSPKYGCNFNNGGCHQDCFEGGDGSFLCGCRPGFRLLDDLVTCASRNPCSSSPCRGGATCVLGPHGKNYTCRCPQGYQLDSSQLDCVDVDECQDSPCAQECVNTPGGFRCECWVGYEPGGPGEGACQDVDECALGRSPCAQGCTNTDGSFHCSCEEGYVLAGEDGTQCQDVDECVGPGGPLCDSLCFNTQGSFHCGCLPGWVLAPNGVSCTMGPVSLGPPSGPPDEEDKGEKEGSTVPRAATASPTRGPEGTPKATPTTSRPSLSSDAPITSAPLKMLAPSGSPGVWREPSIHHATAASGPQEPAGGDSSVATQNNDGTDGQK
Assay: ELISA on coated human CD93/Fc, HRP anti-human kappa secondary, OD490
Description: FIGS. 2A-2O are sets of graphs illustrating that CD93-CAR T cells exert anti-leukemic effects against AML in vitro. FIG. 2A is a bar chart showing that humanized (“HuF11-G1” and “HuF11-G1 TM”) and chimeric F11 (“ChF11-G1”) monoclonal antibodies bind human CD93 with similar affinity. Human CD93/Fc fusion protein was coated in a 96-well plate and different concentrations of the antibodies as indicated were added. HRP-conjugated anti-human Kappa antibody was used as a secondary antibody. CD93 binding activity was measured by reading signals at OD490 […]. FIG. 2B is a cartoon showing the structure of CD93-28z and CD93-BBz CARs. […] Cells were fed with new media every 2-3 days, analyzed for transduction efficiency and phenotype on day 10-11, and processed for downstream experiments. FIG. 2D is a bar graph showing comparing transduction efficiency for each of aCAR molecule and control (“Mock”), measured by flow cytometry on day 10 after T cell activation. […] FIG. 2F is a set of graphs comparing expression levels of markers of T cell activation/exhaustion, including LAG-3, PD-1, TIM-3, and CD39, measured by flow cytometry on day 10 after T cell activation, prior to downstream experiments. […] FIG. 2G is a graph showing CD93 expression on AML cell lines, measured by flow cytometry after staining with biotinylated F11 antibody followed by streptavidin-APC. […]

B1: humanized F11 monoclonal antibody (HuF11-G1) (antibody, V domains shown)
VH: QVQLVQSGAEVKKPGASVKVSCKASGYTFTDYHMDWVKQAPGQGLEWIGDIDPYNGDTVFNQKFKGKATMTRDTSISTAYMELSRLRSDDTAVYYCTRGGDYWGQGTLVTVSS
VL: DIVMTQTPLSLSVTPGQPASISCRSSQTLVHSNGNTYLHWYLQKPGQPPQLLIYKVSNRFSGVPDRFSGSGSGTDFTLKISRVEAEDVGVYFCSQSTHVPFTFGQGTKLEIK
notes: also called humanized F11 antibody
Q: How did the “EC50 (read off the curve)” value turn out when B1 was run?
A: ~0.03 µg/mL

B2: humanized F11 monoclonal antibody (HuF11-G1 TM) (antibody, V domains shown)
VH: B1 VH
VL: B1 VL
notes: as for B1
Q: B2 was tested. Which “EC50 (read off the curve)” value did it give?
A: ~0.03 µg/mL
